Target: Myc-Sharp-1-bHLH (UniProt Q99PV5)
Sequence of UniProt Q99PV5 (Q99PV5 44-99): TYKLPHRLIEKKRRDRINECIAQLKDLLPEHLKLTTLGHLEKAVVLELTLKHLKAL

inhibition of MyoD activity (pMyog-Luc reporter) by Sharp-1-bHLH: 50%
Substance: FLAG-G9a (full-length G9a) (from UniProt Q9Z148 1-1263) (enzyme)

Source: paper PMC3521685
